18 molecules from patent US20200165325A1 can be followed below.

Test [1] has as its target Env (gp120) of HIV-1 strain CAP210.2.00.E8 (HIV-1).
In test [2] the target is Env (gp120) of HIV-1 strain CAP45.2.00.G3 (HIV-1).
In test [3] the target is Env (gp120) of HIV-1 strain AC10.0.29 (HIV-1).
In test [4] the target is Env (gp120) of HIV-1 strain TRO.11 (HIV-1).
Test [5] concerns the target Env (gp120) of HIV-1 strain SC422661.8 (HIV-1).
In test [6] the target is Env (gp120) of HIV-1 strain Du172.17 (HIV-1).
The target of test [7] is HIV-1 Env of strain TRO.11 (HIV-1).
Test [8] has as its target HIV-1 Env of strain SC422661.8 (HIV-1).
Test [9] addresses HIV-1 Env of strain AC10.0.29 (HIV-1).
Test [10] has as its target HIV-1 Env of strain CAP210.2.00.E8 (HIV-1).
Test [11] addresses HIV-1 Env of strain CAP45.2.00.G3 (HIV-1).
The target of test [12] is HIV-1 Env of strain Du172.17 (HIV-1).
Test [13] addresses HIV-1 Env of strain TRO.11 (HIV-1). This is another data set of the same source.
Test [14] has as its target HIV-1 Env of strain SC422661.8 (HIV-1). This is another data set of the same source.
Test [15] deals with HIV-1 Env of strain AC10.0.29 (HIV-1). This is another data set of the same source.
Test [16] addresses HIV-1 Env of strain CAP45.2.00.G3 (HIV-1). The source holds these as a separate data set.
Test [17] addresses HIV-1 Env of strain QH0692.42 (HIV-1).
In test [18] the target is HIV-1 Env of strain ZM214M.PL15.11 (HIV-1).
Test [19] deals with Env (gp120) of HIV-1 strain 3016.v5.c45 (HIV-1).
For test [20], the target named is Env (gp120) of HIV-1 strain C2101.c01 (HIV-1).
The target in test [21] is HIV-1 Env of strain T257-31 (HIV-1).
The target in test [22] is Env (gp120) of HIV-1 strain QH0692.42 (HIV-1).
The target of test [23] is Env (gp120) of HIV-1 strain CAP45.2.00.G3 (HIV-1). The source holds these as a separate data set.
In test [24] the target is Env (gp120) of HIV-1 strain AC10.0.29 (HIV-1). The source holds these as a separate data set.
The target in test [25] is Env (gp120) of HIV-1 strain TRO.11 (HIV-1). The source holds these as a separate data set.
Test [26] addresses Env (gp120) of HIV-1 strain SC422661.8 (HIV-1). The source holds these as a separate data set.
Test [27] deals with Env (gp120) of HIV-1 strain ZM214M.PL15 (HIV-1).
Test [28] concerns the target Env (gp120) of HIV-1 strain T257-31 (HIV-1).

Where two headings read alike, the source gives them in different places.

With NIH45-46 G54H IgG (antibody), the neutralization IC50 in [1] is more than 50 µg/mL; in test [2], more than 50 µg/mL; in test [3] it was 0.6 µg/mL; in [4] it was 0.2 µg/mL; in test [5], 0.09 µg/mL; in test [6] it was more than 50 µg/mL.

Turning to 3BNC60 T54W IgG (antibody), the In vitro neutralization IC50 is 0.06 µg/mL in [7]; 0.1 µg/mL in [8]; 3.1 µg/mL in test [9]; 5 µg/mL in test [10]; 19 µg/mL in test [11]; 0.04 µg/mL in test [12].

Take VRC01 IgG (antibody): the In vitro neutralization IC50 in test [13] stood at 0.5 µg/mL; in [14], 0.2 µg/mL; in test [15], 0.8 µg/mL; in [16] it was 1.8 µg/mL; in test [17] it was 0.7 µg/mL; in test [18], 0.8 µg/mL.

With VRC01 (antibody), the neutralization IC50 in [19] was 0.16 µg/mL; in test [20] it was 0.36 µg/mL.

On to “NIH45-46 heavy chain paired with VRC01 light chain, IgG (antibody)”, for which the In vitro neutralization IC50 in test [13] came to 0.3 µg/mL; in test [21], 0.6 µg/mL; in [14], 0.2 µg/mL; in test [15], 1 µg/mL; in test [16], 2.1 µg/mL; in test [17], 0.9 µg/mL. The same molecule gave an In vitro neutralization IC50 in test [18] of 0.6 µg/mL.

12A12 Y54W IgG (antibody): the In vitro neutralization IC50 in test [7] was 0.2 µg/mL; in [8] it was 0.2 µg/mL; in test [9], 0.5 µg/mL; in [10] it was more than 50 µg/mL; in [11], 0.2 µg/mL; in [12], 0.1 µg/mL.

For 3BNC55 T54W IgG (antibody), the In vitro neutralization IC50 in test [7] is more than 50 µg/mL; in [8], 0.6 µg/mL; in test [9], more than 50 µg/mL; in test [10], more than 50 µg/mL; in test [11], more than 50 µg/mL; in [12] it was more than 50 µg/mL.

In the case of NIH45-46 G54I IgG (antibody), the neutralization IC50 is more than 50 µg/mL in test [1]; more than 50 µg/mL in test [2]; 8.6 µg/mL in [3]; 10 µg/mL in test [4]; 0.1 µg/mL in test [5]; more than 50 µg/mL in test [6].

For NIH45-46 Δ99a-99d (antibody), the neutralization IC50 is 3.7 µg/mL in [22]; more than 50 µg/mL in test [23]; 13 µg/mL in test [24]; more than 50 µg/mL in test [25]; 1.4 µg/mL in [26]; 2.2 µg/mL in [27]. In test [28], this molecule yielded a neutralization IC50 of 7 µg/mL.

As to NIH45-46 G54L IgG (antibody), the neutralization IC50 in test [1] is more than 50 µg/mL; in test [2], more than 50 µg/mL; in [3], 1.7 µg/mL; in test [4] it was 0.3 µg/mL; in test [5] it was 0.1 µg/mL; in test [6], more than 50 µg/mL.

Take 3BNC117 T54W IgG (antibody): the In vitro neutralization IC50 in [7] is 0.6 µg/mL; in test [8] it was 0.07 µg/mL; in test [9], 2.8 µg/mL; in test [10] it was 2.8 µg/mL; in test [11] it was 23 µg/mL; in [12] it was 0.9 µg/mL.

In the case of “VRC01 heavy chain paired with NIH45-46 light chain, IgG (antibody)”, the In vitro neutralization IC50 in test [13] is 24 µg/mL; in test [21] it was 15 µg/mL; in test [14], 0.4 µg/mL; in test [15], 4.5 µg/mL; in test [16] it was more than 50 µg/mL; in [17], 1.2 µg/mL. This molecule also showed an In vitro neutralization IC50 in test [18] of 1.8 µg/mL.

Take NIH45-46 Y99dA (antibody): the neutralization IC50 in test [22] is 2.1 µg/mL; in test [23], more than 50 µg/mL; in test [24], 4.4 µg/mL; in [25], more than 50 µg/mL; in test [26], 0.08 µg/mL; in test [27], 1.1 µg/mL. Besides, in [28], the neutralization IC50 came to 2.4 µg/mL.

On to NIH45-46 G54M IgG (antibody), for which the neutralization IC50 is more than 50 µg/mL in test [1]; more than 50 µg/mL in [2]; 1.5 µg/mL in test [3]; 0.3 µg/mL in test [4]; 0.06 µg/mL in test [5]; more than 50 µg/mL in test [6].

B1: 3BNC55 IgG (wild type) (antibody, V domains shown)
VH: QVQLVQSGTAVKRPGASVRVSCQASGYTFTDYFIYWWRQAPGQGLEWLGWINPLTSQPSYPSRFQGRLTLTRDTFDEMLYMDLRGLRSDDTGIYFCARRHSDYCDFDIWGSGTQIIVSS
VL: DIQMTQSPSSLSASVGDKVTITCQTSAGYLNWYQQRRGRAPKLLMYDGSRLVTGVPSRFSGRRWGTQYNLTIGSLQPEDIATYYCQVYEFFGPGTRLDLKS
In the case of B1, the In vitro neutralization IC50 in test [7] was 7.6 µg/mL; in test [8] it was 0.3 µg/mL; in [9], more than 50 µg/mL; in [10], more than 50 µg/mL; in test [11], more than 50 µg/mL; in test [12], 2 µg/mL.

B2: 3BNC60 IgG (wild type) (antibody)
heavy: QVHLSQSGAAVTKPGASVRVSCEASGYKISDHFIHWWRQAPGQGLQWVGWINPKTGQPNNPRQFQGRVSLTRQASWDFDTYSFYMDLKAVRSDDTAIYFCARQRSDFWDFDVWGSGTQVTVSS
light: DIQMTQSPSSLSARVGDTVTITCQANGYLNWYQQRRGKAPKLLIYDGSKLERGVPARFSGRRWGQEYNLTINNLQPEDVATYFCQVYEFIVPGTRLDLKRTVA
B2: the In vitro neutralization IC50 in test [7] amounted to 0.07 µg/mL; in [8] it was 0.1 µg/mL; in test [9], 13 µg/mL; in [10], 4.7 µg/mL; in [11], 10 µg/mL; in test [12], 0.05 µg/mL.

B3: 3BNC117 IgG (wild type) (antibody)
heavy: QVQLLQSGAAVTKPGASVRVSCEASGYNIRDYFIHWWRQAPGQGLQWVGWINPKTGQPNNPRQFQGRVSLTRHASWDFDTFSFYMDLKALRSDDTAVYFCARQRSDYWDFDVWGSGTQVTVSS
light: DIQMTQSPSSLSASVGDTVTITCQANGYLNWYQQRRGKAPKLLIYDGSKLERGVPSRFSGRRWGQEYNLTINNLQPEDIATYFCQVYEFVVPGTRLDLKRTVA
B3: the In vitro neutralization IC50 in [7] was determined as 0.6 µg/mL; in test [8], 0.07 µg/mL; in [9] it was 6.5 µg/mL; in test [10], 11 µg/mL; in [11] it was 16 µg/mL; in test [12], 0.04 µg/mL.

B4: 12A12 IgG (wild type) (antibody, V domains shown)
VH: SQHLVQSGTQVKKPGASVRISCQASGYSFTDYVLHWWRQAPGQGLEWMGWIKPVYGARNYARRFQGRINFDRDIYREIAFMDLSGLRSDDTALYFCARDGSGDDTSWHLDPWGQGTLVIVSA
VL: DIQMTQSPSSLSASVGDRVTITCQAGQGIGSSLQWYQQKPGKAPKLLVHGASNLHRGVPSRFSGSGFHTTFSLTISGLQRDDFATYFCAVLEFFGPGTKVEIKR
B4: the In vitro neutralization IC50 in test [7] was 0.3 µg/mL; in test [8], 0.2 µg/mL; in test [9], 0.6 µg/mL; in test [10], more than 50 µg/mL; in [11], 0.4 µg/mL; in test [12] it was 0.2 µg/mL.
